Positions of bridges follow the written chain, without caps; N, C: chain ends. Non-standard residues stand in square brackets, D forms with d. No end group written: not given here. *: point of attachment. Isobutyryl(2-imidazol-4-yl) = CC(C)(C(=O)*)c1c[nH]cn1; DMIA = not defined here; PEG = not defined here; Aib = CC(C)(N)C(=O)O
B1: Chimera DMIA1, Cys29 (SEQ ID NO: 520), parent w/PEG (peptide)
peptide: [Isobutyryl(2-imidazol-4-yl)]SQGTFTSDYSKYLDEQAAKEFIAWLMNC(PEG)-NH2
modifications: reading uncertain
B2: E16, K20 AIB2, Cys24 Lactam (SEQ ID NO: 517), parent w/PEG (peptide)
peptide: H[Aib]QGTFTSDYSKYLDERRAKDFVC(PEG)WLMNT-NH2
modifications: lactam 16-20; reading uncertain
B3: E16, K20 DMIA1, Gly29,30 Cys24 Cex Lactam (SEQ ID NO: 513), parent w/o PEG (peptide)
peptide: [DMIA]SQGTFTSDYSKYLDERRAKDFVCWLMNGGPSSGAPPPS-NH2
modifications: lactam 16-20; reading uncertain
B4: E16, K20 DMIA1, Gly29,30 Cys24 Cex Lactam (SEQ ID NO: 513), parent w/PEG (peptide)
peptide: [Isobutyryl(2-imidazol-4-yl)]SQGTFTSDYSKYLDERRAKDFVC(PEG)WLMNGGPSSGAPPPS-NH2
modifications: lactam 16-20; reading uncertain; also: PEG size not given here
B5: Chimera DMIA1, Cys24 (SEQ ID NO: 519), parent w/o PEG (peptide)
peptide: [Isobutyryl(2-imidazol-4-yl)]SQGTFTSDYSKYLDEQAAKEFICWLMNT-NH2
SMILES: CC[C@H](C)[C@H](NC(=O)[C@H](Cc1ccccc1)NC(=O)[C@H](CCC(=O)O)NC(=O)[C@H](CCCCN)NC(=O)[C@H](C)NC(=O)[C@H](C)NC(=O)[C@H](CCC(N)=O)NC(=O)[C@H](CCC(=O)O)NC(=O)[C@H](CC(=O)O)NC(=O)[C@H](CC(C)C)NC(=O)[C@H](Cc1ccc(O)cc1)NC(=O)[C@H](CCCCN)NC(=O)[C@H](CO)NC(=O)[C@H](Cc1ccc(O)cc1)NC(=O)[C@H](CC(=O)O)NC(=O)[C@H](CO)NC(=O)[C@@H](NC(=O)[C@H](Cc1ccccc1)NC(=O)[C@@H](NC(=O)CNC(=O)[C@H](CCC(N)=O)NC(=O)[C@H](CO)NC(=O)C(C)(C)c1c[nH]cn1)[C@@H](C)O)[C@@H](C)O)C(=O)N[C@@H](CS)C(=O)N[C@@H](Cc1c[nH]c2ccccc12)C(=O)N[C@@H](CC(C)C)C(=O)N[C@@H](CCSC)C(=O)N[C@@H](CC(N)=O)C(=O)N[C@H](C(N)=O)[C@@H](C)O
B6: Chimera Cys24 (SEQ ID NO: 518), parent w/PEG (peptide)
peptide: HSQGTFTSDYSKYLDEQAAKEFIC(PEG)WLMNT-NH2
modifications: reading uncertain
B7: E16, K20 AIB2, Cys24 Lactam (SEQ ID NO: 517), parent w/o PEG (peptide)
peptide: H[Aib]QGTFTSDYSKYLDERRAKDFVCWLMNT-NH2
modifications: lactam 16-20; N-terminus assumed
SMILES: CSCC[C@H](NC(=O)[C@H](CC(C)C)NC(=O)[C@H](Cc1c[nH]c2ccccc12)NC(=O)[C@H](CS)NC(=O)[C@@H](NC(=O)[C@H](Cc1ccccc1)NC(=O)[C@H](CC(=O)O)NC(=O)[C@@H]1CCCCNC(=O)CC[C@H](NC(=O)[C@H](CC(=O)O)NC(=O)[C@H](CC(C)C)NC(=O)[C@H](Cc2ccc(O)cc2)NC(=O)[C@H](CCCCN)NC(=O)[C@H](CO)NC(=O)[C@H](Cc2ccc(O)cc2)NC(=O)[C@H](CC(=O)O)NC(=O)[C@H](CO)NC(=O)[C@@H](NC(=O)[C@H](Cc2ccccc2)NC(=O)[C@@H](NC(=O)CNC(=O)[C@H](CCC(N)=O)NC(=O)C(C)(C)NC(=O)[C@@H](N)Cc2c[nH]cn2)[C@@H](C)O)[C@@H](C)O)C(=O)N[C@@H](CCCNC(=N)N)C(=O)N[C@@H](CCCNC(=N)N)C(=O)N[C@@H](C)C(=O)N1)C(C)C)C(=O)N[C@@H](CC(N)=O)C(=O)N[C@H](C(N)=O)[C@@H](C)O

target: GLP-1 receptor (UniProt P43220 24-463, limits assumed); assay: cell-based or functional assay

Going from B1 to B2, the “% Potency Relative to Native” value rises from 27.3% to 31%.

First: B3
Second: B4
The “% Potency Relative to Native” value of the first is higher: 78.3% for the first, 11.3% for the second.

Going from B5 to B6, the “% Potency Relative to Native” value falls from 64.5% to 29.3%.

With B7 the “% Potency Relative to Native” value was 96.9%.

target: glucagon receptor (UniProt P47871 26-477, limits assumed); assay: cell-based or functional assay
Sequence (P47871 26-477 limits assumed): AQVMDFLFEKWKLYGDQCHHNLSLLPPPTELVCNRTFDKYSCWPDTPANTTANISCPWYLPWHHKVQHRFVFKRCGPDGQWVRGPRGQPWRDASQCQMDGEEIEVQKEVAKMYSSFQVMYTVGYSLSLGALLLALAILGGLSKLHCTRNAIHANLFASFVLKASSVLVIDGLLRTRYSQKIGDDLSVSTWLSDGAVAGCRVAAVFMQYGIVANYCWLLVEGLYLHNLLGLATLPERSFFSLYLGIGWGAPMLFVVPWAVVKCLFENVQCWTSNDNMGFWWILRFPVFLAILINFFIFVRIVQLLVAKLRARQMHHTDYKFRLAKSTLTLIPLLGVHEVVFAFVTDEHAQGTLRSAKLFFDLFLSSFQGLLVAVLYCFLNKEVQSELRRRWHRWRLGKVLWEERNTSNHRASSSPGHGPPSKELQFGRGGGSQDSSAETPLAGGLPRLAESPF

Going from B1 to B2, the “% Potency Relative to Native” value rises from 5.3% to 15.8%.

Going from B3 to B4, the “% Potency Relative to Native” value falls from 116% to 12.6%.

First: B5
Second: B6
The “% Potency Relative to Native” value of the first is higher: 28.9% for the first, 19.8% for the second.

For B7, the “% Potency Relative to Native” value was 108%.

— patent US20120172295A1 (INDIANA UNIVERSITY RESEARCH AND TECHNOLOGY, published 2012)
